The target in one test is T1, PKD2, Q13563-1.
T1 sequence: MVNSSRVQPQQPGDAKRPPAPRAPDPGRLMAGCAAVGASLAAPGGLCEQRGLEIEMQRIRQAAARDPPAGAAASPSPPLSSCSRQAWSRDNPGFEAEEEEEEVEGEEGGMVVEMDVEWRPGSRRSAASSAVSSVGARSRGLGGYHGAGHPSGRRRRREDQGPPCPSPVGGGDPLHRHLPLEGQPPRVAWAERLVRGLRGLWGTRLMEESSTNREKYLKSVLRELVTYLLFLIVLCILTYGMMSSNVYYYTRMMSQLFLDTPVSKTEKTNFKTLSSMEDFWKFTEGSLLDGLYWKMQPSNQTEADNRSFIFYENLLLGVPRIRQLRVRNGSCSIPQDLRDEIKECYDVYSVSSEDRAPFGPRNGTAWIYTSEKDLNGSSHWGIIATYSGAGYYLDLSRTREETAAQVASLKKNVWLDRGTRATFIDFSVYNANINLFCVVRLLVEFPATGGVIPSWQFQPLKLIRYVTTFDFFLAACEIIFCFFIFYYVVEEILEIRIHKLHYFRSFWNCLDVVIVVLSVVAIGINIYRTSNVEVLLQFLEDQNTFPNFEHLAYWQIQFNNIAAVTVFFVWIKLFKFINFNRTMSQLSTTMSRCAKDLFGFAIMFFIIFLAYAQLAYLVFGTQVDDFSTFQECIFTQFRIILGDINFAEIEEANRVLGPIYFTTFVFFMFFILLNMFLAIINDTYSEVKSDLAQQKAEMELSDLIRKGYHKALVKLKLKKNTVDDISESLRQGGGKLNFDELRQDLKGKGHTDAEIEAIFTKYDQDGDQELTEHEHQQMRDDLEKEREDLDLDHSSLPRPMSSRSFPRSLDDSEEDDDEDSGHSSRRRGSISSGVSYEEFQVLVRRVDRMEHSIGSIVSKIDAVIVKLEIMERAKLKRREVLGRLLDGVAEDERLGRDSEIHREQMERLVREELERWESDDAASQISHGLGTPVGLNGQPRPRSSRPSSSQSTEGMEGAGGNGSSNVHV
Take “Polycystin-1 (Homo sapiens) (from UniProt P98161-3) L4238A;E4239A”: the “effect of a mutation on the interaction” value is given as “disrupting interaction strength”.
Still for that read-out and setting: with “Polycystin-1 (Homo sapiens) (from UniProt P98161-3) L4238A” the entry was “decreasing interaction strength”; with “Polycystin-1 (Homo sapiens) (from UniProt P98161-3) L4238A;L4242A;L4245A”, “decreasing interaction strength”.
For the substance “Polycystin-1 (Homo sapiens) (from UniProt P98161-3) D4234R”, the “effect of a mutation on the interaction” value is on record as “decreasing interaction strength”.
Still for that read-out and setting: for “Polycystin-1 (Homo sapiens) (from UniProt P98161-3) F4225A;R4227A” the value was “decreasing interaction strength”.
Same read-out and setting: with “Polycystin-1 (Homo sapiens) (from UniProt P98161-3) L4238A;L4242A” the entry was “disrupting interaction strength”; with “Polycystin-1 (Homo sapiens) (from UniProt P98161-3) Y4236R”, “decreasing interaction strength”.
Still for that read-out and setting: with “Polycystin-1 (Homo sapiens) (from UniProt P98161-3) L4228A;N4229A” the entry was “decreasing interaction strength”; with “Polycystin-1 (Homo sapiens) (from UniProt P98161-3) D4234A;Y4236A”, “decreasing interaction strength”; with “Polycystin-1 (Homo sapiens) (from UniProt P98161-3) F4225A;L4228A”, “decreasing interaction strength”.
As for “Polycystin-1 (Homo sapiens) (from UniProt P98161-3) V4217A;L4228A”, the “effect of a mutation on the interaction” value is “decreasing interaction strength”.

The next test concerns the target T1, PKD2, Q13563-1. The source holds these as a separate data set.
As to “Polycystin-1 (Mus musculus), O08852 L4229A;E4230A”, the “effect of a mutation on the interaction” value was “decreasing interaction strength”.
“Polycystin-1 (Mus musculus), O08852 L4229A;L4233A”: the “effect of a mutation on the interaction” value was “decreasing interaction strength”.
